Experimental findings from patent publication US20140087995A1 (published 2014) are described below.

T1: human amylin receptor (human, UniProt P30988 25-474; O60896 24-148, limits assumed)
T1 construct: whole, on cells; Calcitonin receptor plus RAMP-3 gives the amylin 3(a) receptor; membranes of Amylin 3(a)/CRE-luc cells were used; also called hAmylin-R; hAmylinR
T1 sequence (looked up) 1: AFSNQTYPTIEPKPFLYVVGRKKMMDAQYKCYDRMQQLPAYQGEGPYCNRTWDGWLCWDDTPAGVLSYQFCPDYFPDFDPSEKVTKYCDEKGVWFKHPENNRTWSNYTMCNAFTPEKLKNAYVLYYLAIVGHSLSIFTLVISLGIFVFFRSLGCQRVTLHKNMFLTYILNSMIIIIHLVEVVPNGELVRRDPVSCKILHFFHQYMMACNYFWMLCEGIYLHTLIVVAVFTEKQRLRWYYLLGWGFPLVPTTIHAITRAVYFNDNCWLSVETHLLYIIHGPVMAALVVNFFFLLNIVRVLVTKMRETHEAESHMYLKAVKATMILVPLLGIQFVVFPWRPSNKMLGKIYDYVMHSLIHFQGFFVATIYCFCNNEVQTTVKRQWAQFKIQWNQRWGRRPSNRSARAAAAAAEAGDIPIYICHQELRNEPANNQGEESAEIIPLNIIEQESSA
T1 sequence (looked up) 2: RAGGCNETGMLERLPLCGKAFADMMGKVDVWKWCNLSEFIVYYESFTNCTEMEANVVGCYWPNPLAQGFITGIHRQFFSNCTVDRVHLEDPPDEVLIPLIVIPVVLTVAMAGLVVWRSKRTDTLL

B1: N^ε1-[(4S)-4-carboxy-4-(19-carboxynonadecanoylamino)butanoyl]-[Glu14,Arg17,Pro21,Pro27,Pro34,Glu35]-h-amylin (peptide)
peptide: K([γGlu-C20 diacid])CNTATCATQRLAEFLRHSSPNFGAIPSSTNVGPETY-NH2
modifications: disulfide 2-7; N-terminus assumed
SMILES: CC[C@H](C)[C@H](NC(=O)[C@H](C)NC(=O)CNC(=O)[C@H](Cc1ccccc1)NC(=O)[C@H](CC(N)=O)NC(=O)[C@@H]1CCCN1C(=O)[C@H](CO)NC(=O)[C@H](CO)NC(=O)[C@H](Cc1c[nH]cn1)NC(=O)[C@H](CCCNC(=N)N)NC(=O)[C@H](CC(C)C)NC(=O)[C@H](Cc1ccccc1)NC(=O)[C@H](CCC(=O)O)NC(=O)[C@H](C)NC(=O)[C@H](CC(C)C)NC(=O)[C@H](CCCNC(=N)N)NC(=O)[C@H](CCC(N)=O)NC(=O)[C@@H](NC(=O)[C@H](C)NC(=O)[C@@H]1CSSC[C@H](NC(=O)[C@@H](N)CCCCNC(=O)CC[C@H](NC(=O)CCCCCCCCCCCCCCCCCCC(=O)O)C(=O)O)C(=O)N[C@@H](CC(N)=O)C(=O)N[C@@H]([C@@H](C)O)C(=O)N[C@@H](C)C(=O)N[C@@H]([C@@H](C)O)C(=O)N1)[C@@H](C)O)C(=O)N1CCC[C@H]1C(=O)N[C@@H](CO)C(=O)N[C@@H](CO)C(=O)N[C@H](C(=O)N[C@@H](CC(N)=O)C(=O)N[C@H](C(=O)NCC(=O)N1CCC[C@H]1C(=O)N[C@@H](CCC(=O)O)C(=O)N[C@H](C(=O)N[C@@H](Cc1ccc(O)cc1)C(N)=O)[C@@H](C)O)C(C)C)[C@@H](C)O
notes: also called 14E, 17R, 21P, 27P, 34P, 35E
B2: N^ε1-[(4S)-4-carboxy-4-(19-carboxynonadecanoylamino)butanoyl]-[Glu14,Arg17,Pro21,Pro27,Pro34,Pro37]-h-amylin (peptide)
peptide: K([γGlu-C20 diacid])CNTATCATQRLAEFLRHSSPNFGAIPSSTNVGPNTP-NH2
modifications: disulfide 2-7; N-terminus assumed
SMILES: CC[C@H](C)[C@H](NC(=O)[C@H](C)NC(=O)CNC(=O)[C@H](Cc1ccccc1)NC(=O)[C@H](CC(N)=O)NC(=O)[C@@H]1CCCN1C(=O)[C@H](CO)NC(=O)[C@H](CO)NC(=O)[C@H](Cc1c[nH]cn1)NC(=O)[C@H](CCCNC(=N)N)NC(=O)[C@H](CC(C)C)NC(=O)[C@H](Cc1ccccc1)NC(=O)[C@H](CCC(=O)O)NC(=O)[C@H](C)NC(=O)[C@H](CC(C)C)NC(=O)[C@H](CCCNC(=N)N)NC(=O)[C@H](CCC(N)=O)NC(=O)[C@@H](NC(=O)[C@H](C)NC(=O)[C@@H]1CSSC[C@H](NC(=O)[C@@H](N)CCCCNC(=O)CC[C@H](NC(=O)CCCCCCCCCCCCCCCCCCC(=O)O)C(=O)O)C(=O)N[C@@H](CC(N)=O)C(=O)N[C@@H]([C@@H](C)O)C(=O)N[C@@H](C)C(=O)N[C@@H]([C@@H](C)O)C(=O)N1)[C@@H](C)O)C(=O)N1CCC[C@H]1C(=O)N[C@@H](CO)C(=O)N[C@@H](CO)C(=O)N[C@H](C(=O)N[C@@H](CC(N)=O)C(=O)N[C@H](C(=O)NCC(=O)N1CCC[C@H]1C(=O)N[C@@H](CC(N)=O)C(=O)N[C@H](C(=O)N1CCC[C@H]1C(N)=O)[C@@H](C)O)C(C)C)[C@@H](C)O
notes: also called 14E, 17R, 21P, 27P, 34P, 37P
B3: N^ε1-[(4S)-4-carboxy-4-(19-carboxynonadecanoylamino)butanoyl]-[His14,Arg17,Pro21,Pro27,Pro31]-h-amylin (peptide)
peptide: K([γGlu-C20 diacid])CNTATCATQRLAHFLRHSSPNFGAIPSSTPVGSNTY-NH2
modifications: disulfide 2-7; N-terminus assumed
SMILES: CC[C@H](C)[C@H](NC(=O)[C@H](C)NC(=O)CNC(=O)[C@H](Cc1ccccc1)NC(=O)[C@H](CC(N)=O)NC(=O)[C@@H]1CCCN1C(=O)[C@H](CO)NC(=O)[C@H](CO)NC(=O)[C@H](Cc1c[nH]cn1)NC(=O)[C@H](CCCNC(=N)N)NC(=O)[C@H](CC(C)C)NC(=O)[C@H](Cc1ccccc1)NC(=O)[C@H](Cc1c[nH]cn1)NC(=O)[C@H](C)NC(=O)[C@H](CC(C)C)NC(=O)[C@H](CCCNC(=N)N)NC(=O)[C@H](CCC(N)=O)NC(=O)[C@@H](NC(=O)[C@H](C)NC(=O)[C@@H]1CSSC[C@H](NC(=O)[C@@H](N)CCCCNC(=O)CC[C@H](NC(=O)CCCCCCCCCCCCCCCCCCC(=O)O)C(=O)O)C(=O)N[C@@H](CC(N)=O)C(=O)N[C@@H]([C@@H](C)O)C(=O)N[C@@H](C)C(=O)N[C@@H]([C@@H](C)O)C(=O)N1)[C@@H](C)O)C(=O)N1CCC[C@H]1C(=O)N[C@@H](CO)C(=O)N[C@@H](CO)C(=O)N[C@H](C(=O)N1CCC[C@H]1C(=O)N[C@H](C(=O)NCC(=O)N[C@@H](CO)C(=O)N[C@@H](CC(N)=O)C(=O)N[C@H](C(=O)N[C@@H](Cc1ccc(O)cc1)C(N)=O)[C@@H](C)O)C(C)C)[C@@H](C)O
notes: also called 14H, 17R, 21P, 27P, 31P
B4: N^ε1-[(4S)-4-carboxy-4-(19-carboxynonadecanoylamino)butanoyl]-[His14,Arg17,Pro21,Pro27,Pro31,Pro34]-h-amylin (peptide)
peptide: K([γGlu-C20 diacid])CNTATCATQRLAHFLRHSSPNFGAIPSSTPVGPNTY-NH2
modifications: disulfide 2-7; N-terminus assumed
SMILES: CC[C@H](C)[C@H](NC(=O)[C@H](C)NC(=O)CNC(=O)[C@H](Cc1ccccc1)NC(=O)[C@H](CC(N)=O)NC(=O)[C@@H]1CCCN1C(=O)[C@H](CO)NC(=O)[C@H](CO)NC(=O)[C@H](Cc1c[nH]cn1)NC(=O)[C@H](CCCNC(=N)N)NC(=O)[C@H](CC(C)C)NC(=O)[C@H](Cc1ccccc1)NC(=O)[C@H](Cc1c[nH]cn1)NC(=O)[C@H](C)NC(=O)[C@H](CC(C)C)NC(=O)[C@H](CCCNC(=N)N)NC(=O)[C@H](CCC(N)=O)NC(=O)[C@@H](NC(=O)[C@H](C)NC(=O)[C@@H]1CSSC[C@H](NC(=O)[C@@H](N)CCCCNC(=O)CC[C@H](NC(=O)CCCCCCCCCCCCCCCCCCC(=O)O)C(=O)O)C(=O)N[C@@H](CC(N)=O)C(=O)N[C@@H]([C@@H](C)O)C(=O)N[C@@H](C)C(=O)N[C@@H]([C@@H](C)O)C(=O)N1)[C@@H](C)O)C(=O)N1CCC[C@H]1C(=O)N[C@@H](CO)C(=O)N[C@@H](CO)C(=O)N[C@H](C(=O)N1CCC[C@H]1C(=O)N[C@H](C(=O)NCC(=O)N1CCC[C@H]1C(=O)N[C@@H](CC(N)=O)C(=O)N[C@H](C(=O)N[C@@H](Cc1ccc(O)cc1)C(N)=O)[C@@H](C)O)C(C)C)[C@@H](C)O
notes: also called 14H, 17R, 21P, 27P, 31P, 34P
B5: N^ε1-[(4S)-4-carboxy-4-(19-carboxynonadecanoylamino)butanoyl]-[His14,Arg17,Pro21,Pro27,His35]-h-amylin (peptide)
peptide: K([γGlu-C20 diacid])CNTATCATQRLAHFLRHSSPNFGAIPSSTNVGSHTY-NH2
modifications: disulfide 2-7; N-terminus assumed
SMILES: CC[C@H](C)[C@H](NC(=O)[C@H](C)NC(=O)CNC(=O)[C@H](Cc1ccccc1)NC(=O)[C@H](CC(N)=O)NC(=O)[C@@H]1CCCN1C(=O)[C@H](CO)NC(=O)[C@H](CO)NC(=O)[C@H](Cc1c[nH]cn1)NC(=O)[C@H](CCCNC(=N)N)NC(=O)[C@H](CC(C)C)NC(=O)[C@H](Cc1ccccc1)NC(=O)[C@H](Cc1c[nH]cn1)NC(=O)[C@H](C)NC(=O)[C@H](CC(C)C)NC(=O)[C@H](CCCNC(=N)N)NC(=O)[C@H](CCC(N)=O)NC(=O)[C@@H](NC(=O)[C@H](C)NC(=O)[C@@H]1CSSC[C@H](NC(=O)[C@@H](N)CCCCNC(=O)CC[C@H](NC(=O)CCCCCCCCCCCCCCCCCCC(=O)O)C(=O)O)C(=O)N[C@@H](CC(N)=O)C(=O)N[C@@H]([C@@H](C)O)C(=O)N[C@@H](C)C(=O)N[C@@H]([C@@H](C)O)C(=O)N1)[C@@H](C)O)C(=O)N1CCC[C@H]1C(=O)N[C@@H](CO)C(=O)N[C@@H](CO)C(=O)N[C@H](C(=O)N[C@@H](CC(N)=O)C(=O)N[C@H](C(=O)NCC(=O)N[C@@H](CO)C(=O)N[C@@H](Cc1c[nH]cn1)C(=O)N[C@H](C(=O)N[C@@H](Cc1ccc(O)cc1)C(N)=O)[C@@H](C)O)C(C)C)[C@@H](C)O
notes: also called 14H, 17R, 21P, 27P, 35H
B6: N^ε1-[(4S)-4-carboxy-4-(19-carboxynonadecanoylamino)butanoyl]-[His14,Arg17,Pro21,Pro27,His34]-h-amylin (peptide)
peptide: K([γGlu-C20 diacid])CNTATCATQRLAHFLRHSSPNFGAIPSSTNVGHNTY-NH2
modifications: disulfide 2-7; N-terminus assumed
SMILES: CC[C@H](C)[C@H](NC(=O)[C@H](C)NC(=O)CNC(=O)[C@H](Cc1ccccc1)NC(=O)[C@H](CC(N)=O)NC(=O)[C@@H]1CCCN1C(=O)[C@H](CO)NC(=O)[C@H](CO)NC(=O)[C@H](Cc1c[nH]cn1)NC(=O)[C@H](CCCNC(=N)N)NC(=O)[C@H](CC(C)C)NC(=O)[C@H](Cc1ccccc1)NC(=O)[C@H](Cc1c[nH]cn1)NC(=O)[C@H](C)NC(=O)[C@H](CC(C)C)NC(=O)[C@H](CCCNC(=N)N)NC(=O)[C@H](CCC(N)=O)NC(=O)[C@@H](NC(=O)[C@H](C)NC(=O)[C@@H]1CSSC[C@H](NC(=O)[C@@H](N)CCCCNC(=O)CC[C@H](NC(=O)CCCCCCCCCCCCCCCCCCC(=O)O)C(=O)O)C(=O)N[C@@H](CC(N)=O)C(=O)N[C@@H]([C@@H](C)O)C(=O)N[C@@H](C)C(=O)N[C@@H]([C@@H](C)O)C(=O)N1)[C@@H](C)O)C(=O)N1CCC[C@H]1C(=O)N[C@@H](CO)C(=O)N[C@@H](CO)C(=O)N[C@H](C(=O)N[C@@H](CC(N)=O)C(=O)N[C@H](C(=O)NCC(=O)N[C@@H](Cc1c[nH]cn1)C(=O)N[C@@H](CC(N)=O)C(=O)N[C@H](C(=O)N[C@@H](Cc1ccc(O)cc1)C(N)=O)[C@@H](C)O)C(C)C)[C@@H](C)O
notes: also called 14H, 17R, 21P, 27P, 34H
B7: N^ε1-[(4S)-4-carboxy-4-(19-carboxynonadecanoylamino)butanoyl]-[Glu14,Arg17,Pro21,Pro27,Pro34,His35]-h-amylin (peptide)
peptide: K([γGlu-C20 diacid])CNTATCATQRLAEFLRHSSPNFGAIPSSTNVGPHTY-NH2
modifications: disulfide 2-7
notes: also called 14E, 17R, 21P, 27P, 34P, 35H

Numbered stars: 1 amine (or outer) side, 2 acyl side, 3 side chain; on linkers, the order of the positions; unused ones are H or OH. Bridge positions count the residues as written; N and C are the ends. Side chains are listed from the residue outwards. Ends that are not written are not given here. * marks the point of attachment. C20 diacid = O=C(O)CCCCCCCCCCCCCCCCCCC(=O)*; γGlu = O=C(O)[C@H](CCC(=O)[*:2])N[*:1]

What is called IC50 is the concentration that gives 50% inhibition. High values mean weaker potency, low ones greater potency.

For the assay, the target named is T1, human amylin receptor. In words: SPA competition binding, displacement of 125I-rat amylin from membranes with human amylin 3(a) receptor (Assay V). The procedure, abridged:
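One-site competition analysis of SPA counts yielded IC₅₀ as a measure of affinity. Membranes were at 35 ng/μL final; incubation was 120 min at 25° C, pH 7.4.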
A general note: Loss of bound radioactivity is the signal in a displacement assay; it reports binding, not function.
With B1, the half-maximal inhibitory concentration (IC50) stood at 140 pM.
Then B2, with 214 pM; and B3, with 98 pM; and B4, with 82 pM.
Next, B5: 396 pM; B6: 271 pM.
In turn, B7 yielded an IC50 of 179 pM.
